Results from the supplement of paper PMC10567573.

B1: ZNF207 (parent)
chain: CHICHKKLYTGPGLAIHCMQVHKE

Variants of: B1
Test: protein stability index of a GFP-peptide fusion (GPS, HEK-293T) (PSI 1-6); higher = more stable
Settings: c terminus: a fixed tail appended
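Note: lentivirally expressed fusions sorted by FACS into six bins by GFP to DsRed ratio, PSI derived from sequencing read proportions per bin multiplied by bin number.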

Protein stability index: each site, then its substitutions
H17: V 3.01, K 2.19, F 3.52, L 1.87, C 3.87, D 2.47, G 2.82, T 2.7, P 2.78, Y 2.67, E 3.36, Q 2.97, R 2.22, N 2.25, M 2.55
Q20: D 3.28, F 3.4, V 3.88, L 4, N 3.85, C 4.79, W 2.92, S 1.93, H 4.04, K 2.75, M 3.65, T 3.56, R 2.62, P 2.86, A 3.4, E 3.95, G 3.13, Y 3.36, I 3.61
H22: P 3.15, L 2.11, S 1.85, W 1.68, G 1.88, Y 1.45, A 2.65, C 2.64, E 2.67, K 2.41, F 1.92, I 2.41, M 2.78, N 2.35, Q 1.8, V 2.03, R 2.11, D 3.04, T 2.48
V21: W 2.89, P 3.21, H 3.44, T 3.7, S 3.71, R 2.84, F 3.35, G 3.96, K 3.27, E 3.6, D 3.5, C 4.09, Y 3.93, M 3.72, A 3.84, Q 2.89, I 2.49, L 3, N 3.48
I16: C 4.33, W 3.16, A 3.54, M 3.45, V 3.81, D 4.71, H 4.39, K 3.23, S 3.72, F 3.83, Q 3.9, E 4.77, R 2.71, G 4.1, L 3.01, N 3.71, P 3.97, Y 3.02, T 3.82
K23: E 3.95, D 3.87, L 2.38, W 2.25, Y 2.19, M 3.49, Q 3.52, G 3.68, I 2.21, T 2.61, C 3.06, A 3.14, S 3.35, H 3.48, R 3.13, F 2.04, N 4.12, P 3.04, V 3.19
A15: Q 3.7, T 3.69, C 4.64, I 2.79, W 2.27, P 3.24, H 2.99, K 3.38, E 3.55, D 4.37, L 2.66, G 4.44, R 3.19, M 3.35, Y 3.21, N 3.7, F 2.91, S 3.42, V 2.35
C18: M 2.47, G 2.18, R 2.4, Y 2.02, W 1.93, E 3.57, D 2.75, Q 2.99, P 2.47, L 3.69, K 3.09, T 3.02, F 2.21, S 3.01, I 2.06, N 2.59, V 2.8, H 2.56, A 2.62
L14: M 3.45, K 3.1, H 3.69, P 3.9, D 4.56, A 3.96, T 3.6, Y 2.94, W 2.85, Q 3.78, F 2.9, V 3, G 3.85, I 3.3, N 4.65, R 2.79, S 3.22, E 4.44, C 3.34
